Measured values from patent publication US20250002557A1.

Molecular target: T1, PDGF-CC, Q9NRA1
T1 chain: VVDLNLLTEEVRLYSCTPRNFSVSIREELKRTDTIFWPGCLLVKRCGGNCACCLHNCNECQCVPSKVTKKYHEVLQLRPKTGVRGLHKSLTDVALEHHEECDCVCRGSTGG
Experiment: SPR, PDGF coupled to CM5 chip, VEGFR2-Fc in flow
Conditions: remark: other sources report otherwise

Kd: 73.6 nM
B1: VEGFR2-Fc (Met1-Glu764), P35968 20-764 (Fc fusion, not shown: a dimerising Fc or GST)
chain: ASVGLPSVSLDLPRLSIQKDILTIKANTTLQITCRGQRDLDWLWPNNQSGSEQRVEVTECSDGLFCKTLTIPKVIGNDTGAYKCFYRETDLASVIYVYVQDYRSPFIASVSDQHGVVYITENKNKTVVIPCLGSISNLNVSLCARYPEKRFVPDGNRISWDSKKGFTIPSYMISYAGMVFCEAKINDESYQSIMYIVVVVGYRIYDVVLSPSHGIELSVGEKLVLNCTARTELNVGIDFNWEYPSSKHQHKKLVNRDLKTQSGSEMKKFLSTLTIDGVTRSDQGLYTCAASSGLMTKKNSTFVRVHEKPFVAFGSGMESLVEATVGERVRIPAKYLGYPPPEIKWYKNGIPLESNHTIKAGHVLTIMEVSERDTGNYTVILTNPISKEKQSHVVSLVVYVPPQIGEKSLISPVDSYQYGTTQTLTCTVYAIPPPHHIHWYWQLEEECANEPSQAVSVTNPYPCEEWRSVEDFQGGNKIEVNKNQFALIEGKNKTVSTLVIQAANVSALYKCEAVNKVGRGERVISFHVTRGPEITLQPDMQPTEQESVSLWCTADRSTFENLTWYKLGPQPLPIHVGELPTPVCKNLDTLWKLNATMFSNSTNDILIMELKNASLQDQGDYVCLAQDRKTKKRHCVVRQLTVLERVAPTITGNLENQTTSIGESIEVSCTASGNPPPQIMWFKDNETLVEDSGIVLKDGNRNLTIRRVRKEDEGLYTCQACSVLGCAKVEAFFIIEGAQEKTNLE
